Paper PMC7746861, “Acetate Metabolism in Archaea: Characterization of an Acetate Transporter and of Enzymes Involved in Acetate Activation and Gluconeogenesis in Haloferax volcanii” (Frontiers in Microbiology, 2020)

Key:
[1] = substrate: Nc1ncnc2c1ncn2[C@@H]1O[C@H](COP(=O)(O)OP(=O)(O)OP(=O)(O)O)[C@@H](O)[C@H]1O; experiment: discontinuous PEP formation assay; type: biochemical, Haloferax volcanii; conditions: pyruvate, MgCl2, DTE, 2 M KCl, pH 8.0, 42°C
[2] = substrate: CC(=O)C(=O)O; experiment: discontinuous PEP formation assay; type: biochemical, Haloferax volcanii; conditions: ATP, MgCl2, DTE, 2 M KCl, pH 8.0, 42°C
purified protein [3] = substrate: CC(=O)O; experiment: purified protein; conditions: acetate activation, ATP, CoA, MgCl2, 1 M KCl, pH 7.0, 42°C, pH 7.0
purified protein [4] = substrate: Nc1ncnc2c1ncn2[C@@H]1O[C@H](COP(=O)(O)OP(=O)(O)OP(=O)(O)O)[C@@H](O)[C@H]1O; experiment: purified protein; type: biochemical, Haloferax volcanii; conditions: acetate activation, ATP, CoA, MgCl2, 1 M KCl, pH 7.0, 42°C
purified protein [5] = substrate: Nc1ncnc2c1ncn2[C@@H]1O[C@H](COP(=O)(O)O)[C@@H](O)[C@H]1O; experiment: purified protein; type: biochemical, Haloferax volcanii; conditions: acetate formation (reverse), acetyl-CoA, PPi, MgCl2, 1 M KCl, pH 7.0, 42°C
purified protein [6] = substrate: CC(C)(COP(=O)(O)OP(=O)(O)OC[C@H]1O[C@@H](n2cnc3c(N)ncnc32)[C@H](O)[C@@H]1OP(=O)(O)O)[C@@H](O)C(=O)NCCC(=O)NCCS; experiment: purified protein; type: biochemical, Haloferax volcanii; conditions: acetate activation, ATP, CoA, MgCl2, 1 M KCl, pH 7.0, 42°C
purified protein [7] = substrate: CC(=O)SCCNC(=O)CCNC(=O)[C@H](O)C(C)(C)COP(=O)(O)OP(=O)(O)OC[C@H]1O[C@@H](n2cnc3c(N)ncnc32)[C@H](O)[C@@H]1OP(=O)(O)O; experiment: purified protein; type: biochemical, Haloferax volcanii; conditions: acetate formation (reverse), AMP, PPi, MgCl2, 1 M KCl, pH 7.0, 42°C

Protein	Km [1] [µM]	Km [2] [µM]	Km (purified protein [3]) [µM]	Vmax (purified protein [3]) [µmol/min/mg]	Km (purified protein [4]) [µM]	Km (purified protein [5]) [µM]	Km (purified protein [6]) [µM]	Km (purified protein [7]) [µM]	Vmax (purified protein [7]) [µmol/min/mg]
PPS (Haloferax volcanii DS2) (protein, full length, Ni-NTA purified, homologous expression in H. volcanii) MAVVWLDDVRADDLDLVGGKGASLGELTGAGLPVPPGFVVTASTYRAFIEDAGIDDELFAAVEVDHEDSEALQAAHETAHDLIMETPMPDDVREEILDAYRSVGEGDAFVAVRSSATAEDLPDASFAGQQETFLNVTEEDLLDRVKECWASLFSERAIYYRNRKGFPHDKVDIAVVVQQMVDAEKSGVMFTRHPSTGKKEIIIEAAWGLGEAVVSGTVSPDNYVVSRETGEVETATIADKKTMCVRDEESGETVMRDVPNGRRHERVLTDDEVSRLLELGELVEDHYEKPQDVEWAVYDGEVYMLQSRPITTIAEGDDGEETESEGDSSGSSRATATGDDVLIRGLGASPGIASGRARIVTKLDHLDQVAEGDIIVTEMTMPDMVPAMKRAAGIVTDEGGMTSHAAIVSRELGVPAVVGTGDGTKTLEDGEVVTIDGDKGTVREGEEPEEKQRQPVEEARPKTPVKPMTATEVKVNVSIPEAAERAAATGADGVGLLRIEHMVLTLGKTPGRFIEQNGERAYVDEIVSGVREAAEEFYPRPVRVRTLDAPTDEFRQLEGGENEPREHNPMLGYRGIRRGLDNPSVFRLELQAFRRLFDMGYDNLEVMFPLVNDAEDVLRAKEHMREAGIDPEKREWGVMIETPAAALCIEELADAGIDFASFGTNDLTQYTLAVDRNNEHVADIYDELHPAVLKLIGDTIETCREVGVKTSICGQAGSKPKMVQFLVDKGVSSISANIDAVRDVQHEVKRVEQRLLLDSVR	360	270	–	–	–	–	–	–	–
ACS7 (Haloferax volcanii DS2) (protein, full length, Ni-NTA purified (pTA963), homologous expression in H. volcanii H1209) MAQGDAELEARLAEQDEFEPTEEFVAQANVSDAGIYDEFEENWPDCWERAADLLDWDADYDEVLDDSNPPFYEWFTGGELNACYNCVDRHVENGDKNRVAIKWEGEHGETRTYTYQDLYREVNEFAAALRDLGVEEDDVVTLYMPMVPELPIAMLACARIGAPHNVVFAGFSAEALATRMNAADSRFLVTCDGYYRRGDPLDHLDKTNEGLDSVDHGVDATVVVDRLGDDGFDHDLKGNQHDWDDLLEAQSGERVAPVERDAEDMLFLMYTSGTTGQPKGVKHTTGGYLSYATWTSHAVLDIETEDTYWCSADIGWITGHSYIVYGPLALGSTTVMYEGTPDFPNRDRMWELVEKYAVDIFYTAPTAIRAFMKWGSKYPESRDLSSLRLLGTVGEPINPRAWKWYYEHIGNENCPVVDTWWQTETGGMMITTLPGVKNMKPGSAGPPLPGIDAQIVDTDGDEVEPGRAGYLTVNKPWPGMLRTLYDNDERYISEYWAEYSDTDSDDPDDWVYFPEDGAKVDEDGYITVLGRVDDVINVSGHRLGTMEIESAIVGVEGVAEAAVVGGNHEVKGEAVYAYVITEDGYEEGEDLRARIVEGVEDAIGPIARPEQVVFTPELPKTRSGKIMRRLLEDVANGAELGNTSTLRNPEIVGEIEAKVRAQSD	–	–	840	26.1	590	90	230	150	6.2
